Legend:
Test in all cases: ΔPlySs1 OD600 lysis, 1 hr, optimal buffering conditions
Type in all cases: cell-based, Streptococcus suis
[1] = tested on: S. suis 10 (ST2)
Protocol: (§1) Truncated PlySs1(ΔPlySs1) lysin activity was determined against different cell types. Given the above experiments, the following optimal buffering conditions were employed for all further in vitro experiments with ΔPlySs1: 20 mM phosphate buffer, pH=7.8, 2 mM EDTA. A range of lysin concentrations, from 6.5-130 μg/ml, were introduced to live S. suis cells in this buffer. Three strains were considered particularly relevant: 7711, the serotype 7 strain that encodes PlySs1; S735, the serotype 2 reference strain; and 7997, a highly virulent serotype 9 strain. In terms of bacterial viability, only the highest PlySs1-concentration (130 μg/ml) led to a >90% decrease in CFUs for 7711, S735, and 7997 after 1 hr treatment (TABLE 2). The lysin was also tested against actively-dividing cells in broth culture (strain 7711) (FIG. 20).
(§2) ΔPlySs1 was further tested against a panel of 19 other S. suis strains of diverse serotypes, as well as other species of Gram-positive bacteria. The same lysin concentrations were used as above. For each dosage, the observed lysis values after 1 hr are listed in TABLE 3 and TABLE 4, and the information is summarized graphically in FIG. 21.

[2] = tested on: S. suis 6388 (ST1)
Protocol: as §1, §2

[3] = tested on: S. suis ST9
Protocol: as §1, §2

[4] = tested on: S. suis ST3
Protocol: as §1, §2

[5] = tested on: S. suis ST1
Protocol: as §1, §2

[6] = tested on: S. suis ST14
Protocol: as §1, §2

[7] = tested on: S. suis ST10
Protocol: as §1, §2

[8] = tested on: S. suis ST8
Protocol: as §1, §2

[9] = tested on: S. suis ST6
Protocol: as §1, §2

[10] = tested on: S. suis ST5
Protocol: as §1, §2

[11] = tested on: S. suis 8076 (ST9)
Protocol: as §1, §2

[12] = tested on: S. suis ST2
Protocol: as §1, §2

[13] = tested on: S. suis ST4
Protocol: as §1, §2

[14] = tested on: S. suis 7197 (ST7)
Protocol: as §1, §2

[15] = tested on: S. suis ST11
Protocol: as §1, §2

[16] = tested on: S. suis ST13
Protocol: as §1, §2

[17] = tested on: S. suis ST7
Protocol: as §1, §2

[18] = tested on: S. suis 6112 (ST1)
Protocol: as §1, §2

B1: ΔPlySs1: truncated PlySs1 lysin, SEQ ID NO:2, N-terminal 254 amino acids: only N-terminal enzymatic and central binding domains (protein, listed as Streptococcus suis)
chain: MTINLETSIRWMSDRVGKVSYSMDYRNGPNSYDCSSAVYYALMAGGAISAGWAVNTEYMHDWLIRNGYVLVAENKPFNAQRHDVCILGKRGYSSGAGGHVVIFVDNVNVIHCNYARNGISIDNYNQVHRGMYYYLYRPANQPSISNKSLDQLVKETLAGVHGNGDTRKASLGSQYEAVMAVINGKASASEKSDEELAREVLAGKHGAGEDRKRSLGPRYEPVQAKVNELLKAKEKPSETAKNEPQTVQFKEDGDL
[1]; 6.5 μg/ml
  1-hour treated/untreated OD600-ratio: 0.29
[1]; 13 μg/ml
  1-hour treated/untreated OD600-ratio: 0.18
[1]; 30 μg/ml
  1-hour treated/untreated OD600-ratio: 0.10
[1]; 65 μg/ml
  1-hour treated/untreated OD600-ratio: 0.05
[1]; 130 μg/ml
  1-hour treated/untreated OD600-ratio: 0.02
[2]; 6.5 μg/ml
  1-hour treated/untreated OD600-ratio: 0.15
[2]; 13 μg/ml
  1-hour treated/untreated OD600-ratio: 0.13
[2]; 30 μg/ml
  1-hour treated/untreated OD600-ratio: 0.06
[2]; 65 μg/ml
  1-hour treated/untreated OD600-ratio: 0.03
[2]; 130 μg/ml
  1-hour treated/untreated OD600-ratio: 0.02
[3]; 6.5 μg/ml
  1-hour treated/untreated OD600-ratio: 0.50
[3]; 13 μg/ml
  1-hour treated/untreated OD600-ratio: 0.30
[3]; 30 μg/ml
  1-hour treated/untreated OD600-ratio: 0.23
[3]; 65 μg/ml
  1-hour treated/untreated OD600-ratio: 0.13
[3]; 130 μg/ml
  1-hour treated/untreated OD600-ratio: 0.05
[4]; 6.5 μg/ml
  1-hour treated/untreated OD600-ratio: 0.81
[4]; 13 μg/ml
  1-hour treated/untreated OD600-ratio: 0.71
[4]; 30 μg/ml
  1-hour treated/untreated OD600-ratio: 0.48
[4]; 65 μg/ml
  1-hour treated/untreated OD600-ratio: 0.32
[4]; 130 μg/ml
  1-hour treated/untreated OD600-ratio: 0.16
[5]; 6.5 μg/ml
  1-hour treated/untreated OD600-ratio: 0.80
[5]; 13 μg/ml
  1-hour treated/untreated OD600-ratio: 0.34
[5]; 30 μg/ml
  1-hour treated/untreated OD600-ratio: 0.36
[5]; 65 μg/ml
  1-hour treated/untreated OD600-ratio: 0.19
[5]; 130 μg/ml
  1-hour treated/untreated OD600-ratio: 0.06
[6]; 6.5 μg/ml
  1-hour treated/untreated OD600-ratio: 0.79
[6]; 13 μg/ml
  1-hour treated/untreated OD600-ratio: 0.57
[6]; 30 μg/ml
  1-hour treated/untreated OD600-ratio: 0.33
[6]; 65 μg/ml
  1-hour treated/untreated OD600-ratio: 0.15
[6]; 130 μg/ml
  1-hour treated/untreated OD600-ratio: 0.06
[7]; 6.5 μg/ml
  1-hour treated/untreated OD600-ratio: 0.85
[7]; 13 μg/ml
  1-hour treated/untreated OD600-ratio: 0.72
[7]; 30 μg/ml
  1-hour treated/untreated OD600-ratio: 0.55
[7]; 65 μg/ml
  1-hour treated/untreated OD600-ratio: 0.44
[7]; 130 μg/ml
  1-hour treated/untreated OD600-ratio: 0.28
[8]; 6.5 μg/ml
  1-hour treated/untreated OD600-ratio: 0.25
[8]; 13 μg/ml
  1-hour treated/untreated OD600-ratio: 0.12
[8]; 30 μg/ml
  1-hour treated/untreated OD600-ratio: 0.06
[8]; 65 μg/ml
  1-hour treated/untreated OD600-ratio: 0.03
[8]; 130 μg/ml
  1-hour treated/untreated OD600-ratio: 0.03
[9]; 6.5 μg/ml
  1-hour treated/untreated OD600-ratio: 0.76
[9]; 13 μg/ml
  1-hour treated/untreated OD600-ratio: 0.56
[9]; 30 μg/ml
  1-hour treated/untreated OD600-ratio: 0.40
[9]; 65 μg/ml
  1-hour treated/untreated OD600-ratio: 0.21
[9]; 130 μg/ml
  1-hour treated/untreated OD600-ratio: 0.06
[10]; 6.5 μg/ml
  1-hour treated/untreated OD600-ratio: 0.78
[10]; 13 μg/ml
  1-hour treated/untreated OD600-ratio: 0.59
[10]; 30 μg/ml
  1-hour treated/untreated OD600-ratio: 0.39
[10]; 65 μg/ml
  1-hour treated/untreated OD600-ratio: 0.22
[10]; 130 μg/ml
  1-hour treated/untreated OD600-ratio: 0.10
[11]; 6.5 μg/ml
  1-hour treated/untreated OD600-ratio: 0.52
[11]; 13 μg/ml
  1-hour treated/untreated OD600-ratio: 0.40
[11]; 30 μg/ml
  1-hour treated/untreated OD600-ratio: 0.21
[11]; 65 μg/ml
  1-hour treated/untreated OD600-ratio: 0.14
[11]; 130 μg/ml
  1-hour treated/untreated OD600-ratio: 0.04
[12]; 6.5 μg/ml
  1-hour treated/untreated OD600-ratio: 0.79
[12]; 13 μg/ml
  1-hour treated/untreated OD600-ratio: 0.70
[12]; 30 μg/ml
  1-hour treated/untreated OD600-ratio: 0.49
[12]; 65 μg/ml
  1-hour treated/untreated OD600-ratio: 0.34
[12]; 130 μg/ml
  1-hour treated/untreated OD600-ratio: 0.17
[13]; 6.5 μg/ml
  1-hour treated/untreated OD600-ratio: 0.63
[13]; 13 μg/ml
  1-hour treated/untreated OD600-ratio: 0.47
[13]; 30 μg/ml
  1-hour treated/untreated OD600-ratio: 0.32
[13]; 65 μg/ml
  1-hour treated/untreated OD600-ratio: 0.22
[13]; 130 μg/ml
  1-hour treated/untreated OD600-ratio: 0.12
[14]; 6.5 μg/ml
  1-hour treated/untreated OD600-ratio: 0.64
[14]; 13 μg/ml
  1-hour treated/untreated OD600-ratio: 0.49
[14]; 30 μg/ml
  1-hour treated/untreated OD600-ratio: 0.39
[14]; 65 μg/ml
  1-hour treated/untreated OD600-ratio: 0.16
[14]; 130 μg/ml
  1-hour treated/untreated OD600-ratio: 0.07
[15]; 6.5 μg/ml
  1-hour treated/untreated OD600-ratio: 0.64
[15]; 13 μg/ml
  1-hour treated/untreated OD600-ratio: 0.47
[15]; 30 μg/ml
  1-hour treated/untreated OD600-ratio: 0.32
[15]; 65 μg/ml
  1-hour treated/untreated OD600-ratio: 0.19
[15]; 130 μg/ml
  1-hour treated/untreated OD600-ratio: 0.07
[16]; 6.5 μg/ml
  1-hour treated/untreated OD600-ratio: 0.32
[16]; 13 μg/ml
  1-hour treated/untreated OD600-ratio: 0.17
[16]; 30 μg/ml
  1-hour treated/untreated OD600-ratio: 0.04
[16]; 65 μg/ml
  1-hour treated/untreated OD600-ratio: 0.02
[16]; 130 μg/ml
  1-hour treated/untreated OD600-ratio: 0.02
[17]; 6.5 μg/ml
  1-hour treated/untreated OD600-ratio: 0.65
[17]; 13 μg/ml
  1-hour treated/untreated OD600-ratio: 0.47
[17]; 30 μg/ml
  1-hour treated/untreated OD600-ratio: 0.34
[17]; 65 μg/ml
  1-hour treated/untreated OD600-ratio: 0.22
[17]; 130 μg/ml
  1-hour treated/untreated OD600-ratio: 0.11
[18]; 6.5 μg/ml
  1-hour treated/untreated OD600-ratio: 0.14
[18]; 13 μg/ml
  1-hour treated/untreated OD600-ratio: 0.11
[18]; 30 μg/ml
  1-hour treated/untreated OD600-ratio: 0.06
[18]; 65 μg/ml
  1-hour treated/untreated OD600-ratio: 0.02
[18]; 130 μg/ml
  1-hour treated/untreated OD600-ratio: 0.01

— US11111484B2, “Streptococcus bacteriophage lysins for detection and treatment of gram positive bacteria” (priority 2011, dated 2021)
